Here are results for six compounds from PMC7497631, “Role of Membrane Tension Sensitive Endocytosis and Rho GTPases in the Uptake of the Alzheimer’s Disease Peptide Aβ(1-42)” (ACS Chemical Neuroscience, 2020).

The test system of series [1] is SH-SY5Y cells. The series is described as follows: Cellular uptake by flow cytometry in cells transfected with EGFP-tagged Rho GTPases (Cdc42, Rac1, RhoA). The note with it: for uptake on overexpression of DA EGFP-Cdc42 Q61L relative to nontransfected cells / uptake on overexpression of WT or DN EGFP-Cdc42 relative to nontransfected cells: ~24 h post-transfection; for uptake on overexpression of DA EGFP-Cdc42 Q61L relative to nontransfected cells: 1 μM HF647-Aβ(1-42) 1 h, 5 μg/mL AF647-Trf 5 min (N = 3, n = 4) or 125 μg/ml AF647-dextran 10 kDa 1 h (n = 4); for uptake on overexpression of WT or DN EGFP-Cdc42 relative to nontransfected cells / uptake on overexpression of all variants of EGFP-tagged RhoA (DA Q63L, WT, DN T19N) relative to nontransfected cells: 1 μM HF647-Aβ(1-42) 1 h or 5 μg/mL AF647-Trf 5 min; for uptake on overexpression of all variants of EGFP-tagged RhoA (DA Q63L, WT, DN T19N) relative to nontransfected cells: ~30 h post-transfection, N = 4, n = 4; for uptake on overexpression of EGFP-tagged Rac1 (DA Q61L, WT, DN T17N) relative to nontransfected cells: 1 μM HF647-Aβ(1-42) 1 h (N = 3, n = 4) or 125 μg/ml AF647-dextran 10 kDa 1 h (n = 4).
Description: SH-SY5Y cells were passaged 2 days prior to transfection, grown to ∼70% confluency, and transfected with plasmids encoding for Rho GTPases (EGFP-tagged DA, WT, and DN variants of Cdc42, Rac1, and RhoA; see the above section Reagents) by electroporation using a Neon Transfection System (Invitrogen, Carlsbad, CA), following the protocol provided by the manufacturer and applying a single pulse of 1 100 V with a pulse width of 50 ms. The cells were transfected using 1 μg of plasmid DNA/100 000 cells in a 10 μL Neon Tip or 10 μg of plasmid DNA/10^6 cells in a 100 μL Neon Tip and plated immediately after. Based on the initial experiments, the analysis was set to ∼24 h, ∼27 h, and ∼30 h post-transfection for Cdc42, Rac1, and RhoA, respectively, by evaluating the time it took until the cells expressed the proteins and adapted the expected morphologies.
Flow cytometry was used for quantification of cellular uptake. […] All samples were kept on ice until they were analyzed on a Guava EasyCyte 8HT (Millipore, Darmstadt, Germany) that automatically retrieves samples from a 96-well plate. In order to exclude effects due to difference in delay time, we used mixed order of analysis, loading only a few samples at a time with the remaining samples kept on ice. Only the central cell cluster on the forward/side scatter (FSC/SSC) dot plot was analyzed, and for each sample 5 000 cells from within the gate were counted. […] The mean cellular uptake or level of Rho GTPase expression was estimated as the average fluorescence intensity of all cells within the gate. The mean cellular uptake was baseline corrected by subtracting the signal recorded for untreated cells. Each cell treatment was performed in three or four technical replicates (n = 3–4) and repeated on at least two separate occasions (N ≥ 2).
Statistical analysis was performed by matched sample ANOVA using GraphPad Prism software (GraphPad, San Diego, CA) on data that had been normalized so that the uptake in nontransfected cells was 100% for the individual experiments. Matched sample ANOVA was followed by multiple comparisons with the Bonferroni posthoc test to test for differences in mean peptide uptake between nontransfected cells and uptake at the different transfection efficiencies. This means that the reported individual p-values have been adjusted for the number of comparisons that were relevant to the experiment.

Series [2] deals with SH-SY5Y cells. The note with it: cited from earlier work; for internalization in presence of inhibitors of actin polymerization: SH-SY5Y cells. From the text: Rho GTPases are important regulators of CIE (Figure 1).[30],[41] […] Since Cdc42 (and other Rho GTPases) regulate the actin cytoskeleton,[74] this would be consistent with our previously published result that inhibitors of actin polymerization reduced Aβ(1-40) and Aβ(1-42) but not Trf internalization in SH-SY5Y cells.[13] To f ... || We repeated this set of experiments, exploring also the Rho GTPases Rac1 and RhoA. Overexpression of EGFP-tagged Rac1 (DA Q61L, WT, and DN T17N) induced lamellipodia-like morphologies in transfected cells as expected from the literature.[74] […] The latter result is contrasting observations by ... || We report that Aβ(1-42) uptake into SH-SY5Y cells is sensitive to osmotic pressure-induced alterations in membrane tension, which points to the involvement of CLICs or macropinocytosis. Importantly, Aβ(1-42) behaves distinctively different than the CME-cargo Trf, but also dextran, which is an unspecific fluid-phase endocytosis marker.

Series [3] concerns SH-SY5Y cells. The series is described as follows: Live cell confocal microscopy of uptake during changes in membrane tension. The note with it: 2 μM HF488-Aβ(1-42); for internalization during hypotonic conditions: 10 min in hypotonic medium (75% MQ water, 25% cell culture medium); for internalization during hypotonic conditions / internalization during recovery (re-exposure to isotonic conditions): 250 μg/mL AF647-dextran 10 kDa or 5 μg/mL AF488-Trf; for internalization during recovery (re-exposure to isotonic conditions): 10 min in isotonic medium after 10 min hypotonic (75% MQ); for internalization under isotonic conditions: 10 min in isotonic medium, 250 μg/mL AF647-dextran 10 kDa.
Description: SH-SY5Y cells were incubated with Aβ(1-42), Trf, and dextran 10 kDa while exposed to changes in membrane tension and analyzed by confocal microscopy and flow cytometry. For uptake at isotonic conditions, the cells were washed 1× with serum-free medium, incubated with either 2 μM HF488-labeled Aβ(1-42), 5 μg/mL AF488-labeled Trf, or 250 μg/mL AF647-labeled dextran 10 kDa in serum-free medium with the addition of 2% B-27 for 10 min, washed 1× with serum free medium for microscopy, or 3×/2 min on ice with either ice-cold serum-free medium (Aβ(1-42) and dextran) or acidic buffer (0.1 M glycine-HCl buffer pH 2.5 with 150 mM NaCl; Trf)[80] and harvested for analysis by flow cytometry. […] Lastly, cells analyzed for uptake at recovery conditions were first pretreated with isotonic medium for 10 min followed by treatment in hypotonic medium for 10 min, whereupon they were exposed to the peptides and dextran in isotonic medium for 10 min.

The test system of series [4] is SH-SY5Y cells. The series is described as follows: Cellular uptake quantified by flow cytometry during changes in membrane tension. The note with it: for cellular uptake during the recovery phase relative to uptake in isotonic media: 2 μM HF488-labeled Aβ(1-42) or 250 μg/mL AF647-labeled dextran 10 kDa, 10 min in isotonic medium after 10 min hypotonic (75% MQ), serum-free medium + 2% B-27, flow cytometry mean fluorescence, N = 8, n = 3–4; for effect of hypertonic media on uptake: addition of 100 mM NaCl to the culture medium, 2 μM HF488-Aβ(1-42), 250 μg/mL AF647-dextran 10 kDa, 10 min, flow cytometry, N = 4, n = 3–4. The format is cell-based, human. From the text:
Flow cytometry was used for quantification of cellular uptake.
(In general: In flow cytometry, cells or beads pass a laser one at a time.)

Turning to “Trf: AlexaFluor488- and AlexaFluor647-labeled Transferrin, ligand of clathrin-mediated endocytosis”, in the series on SH-SY5Y cells [1], the “uptake on overexpression of DA EGFP-Cdc42 Q61L relative to nontransfected cells” value is listed as “reduced” and the “uptake on overexpression of all variants of EGFP-tagged RhoA (DA Q63L, WT, DN T19N) relative to nontransfected cells” value was “reduced”. Further, the “uptake on overexpression of WT or DN EGFP-Cdc42 relative to nontransfected cells” value in the series with SH-SY5Y cells [1] (N = 3, n = 4) is “no effect”. In addition, in the series on SH-SY5Y cells [1] (~27 h post-transfection, 5 μg/mL AF488-labeled Trf 5 min, high gate, N = 3, n = 4), the “uptake in cells with the highest concentration of WT and DN Rac1” value is recorded as “reduction”. The “uptake in cells with medium expression level of DA Rac1 versus control” value in the series on SH-SY5Y cells [1] (~27 h post-transfection, 5 μg/mL AF488-labeled Trf 5 min, medium gate, N = 3, n = 4) is “slightly more”. Further, in the series with SH-SY5Y cells [2], the “internalization in presence of inhibitors of actin polymerization” value is reported as “not”. For the same compound, in the series on SH-SY5Y cells [3], the “internalization during hypotonic conditions” value is “blocked” and the “internalization during recovery (re-exposure to isotonic conditions)” value (“internalization during recovery” for short) is “remained low”.
Take `COC[C@H]1OC(=O)c2coc3c2[C@@]1(C)C1=C(C3=O)[C@@H]2CCC(=O)[C@@]2(C)C[C@H]1OC(C)=O` [wortmannin]: in the series with SH-SY5Y cells [2], the “effect of macropinocytosis inhibitor on the uptake of Aβ(1-40) and Aβ(1-42)” value is listed as “reductions”.
`Oc1ccc2ccccc2c1SSc1c(O)ccc2ccccc12` [IPA-3]: the “effect of macropinocytosis inhibitor on the uptake of Aβ(1-40) and Aβ(1-42)” value in the series with SH-SY5Y cells [2] is reported as “reductions”.
Turning to “Aβ(1-42): Synthetic Aβ(1-42) peptide, conjugated to the HiLyte Fluor HF488 or HF647 at the N-terminus, from Anaspec; applied in highly monomeric form”, in the series with SH-SY5Y cells [1], the “uptake on overexpression of DA EGFP-Cdc42 Q61L relative to nontransfected cells” value is on record as “reduced” and the “uptake on overexpression of all variants of EGFP-tagged RhoA (DA Q63L, WT, DN T19N) relative to nontransfected cells” value was “reduced”. The “uptake on overexpression of WT or DN EGFP-Cdc42 relative to nontransfected cells” value with SH-SY5Y cells [1] (N = 3, n = 4) is recorded as “no effect”. For the same compound, the “uptake on overexpression of EGFP-tagged Rac1 (DA Q61L, WT, DN T17N) relative to nontransfected cells” value in the series on SH-SY5Y cells [1] (~27 h post-transfection) is “None of the Rac1 variants had any effect”. Besides, in the series on SH-SY5Y cells [2], the “internalization in presence of inhibitors of actin polymerization” value is given as “reduced”; the “internalization by NIH-3T3 fibroblasts compared with CHO and SH-SY5Y” value is recorded as “more”. Besides, in the series on SH-SY5Y cells [4], the “cellular uptake during the recovery phase relative to uptake in isotonic media” value is recorded as “doubles” and the “effect of hypertonic media on uptake” value is recorded as “did not increase”. Also, in the series on SH-SY5Y cells [3], the “internalization during hypotonic conditions” value is “little or no internalization”, the “internalization during recovery” value is given as “resumed to internalize” and the “internalization under isotonic conditions” value was “formation of small endosomal vesicles containing Aβ(1-42) was observed”.
As for “Aβ(1-40): Amyloid-β isoform; uptake results quoted from the authors' earlier work”, the “internalization in presence of inhibitors of actin polymerization” value with SH-SY5Y cells [2] is “reduced”.
With dextran, in the series on SH-SY5Y cells [1], the “uptake on overexpression of DA EGFP-Cdc42 Q61L relative to nontransfected cells” value was “unaffected”. Further, in the series with SH-SY5Y cells [1] (~27 h post-transfection), the “uptake on overexpression of EGFP-tagged Rac1 (DA Q61L, WT, DN T17N) relative to nontransfected cells” value is reported as “did not alter”. Moreover, the “reduction of uptake in cells expressing DA RhoA” value in the series with SH-SY5Y cells [1] (~30 h post-transfection with RhoA Q63L, 125 μg/ml AF647-labelled dextran 10 kDa 1 h, n = 4) was “up to 50%”. Moreover, in the series on SH-SY5Y cells [4], the “cellular uptake during the recovery phase relative to uptake in isotonic media” value is about 8 times and the “effect of hypertonic media on uptake” value was “did not increase”. In the series on SH-SY5Y cells [3], the “internalization during hypotonic conditions” value is reported as “little or no internalization”, the “internalization during recovery” value was “induced” and the “internalization under isotonic conditions” value is given as “low”.
